Assay results as given in PMC5291255.

Molecular target: T1, nPfh1-K338A (His6-Trx-nPfh1-K338A-FLAG) (Schizosaccharomyces pombe, UniProt Q9UUA2 =MG+22-805, K338A;internal_change)
T1 sequence: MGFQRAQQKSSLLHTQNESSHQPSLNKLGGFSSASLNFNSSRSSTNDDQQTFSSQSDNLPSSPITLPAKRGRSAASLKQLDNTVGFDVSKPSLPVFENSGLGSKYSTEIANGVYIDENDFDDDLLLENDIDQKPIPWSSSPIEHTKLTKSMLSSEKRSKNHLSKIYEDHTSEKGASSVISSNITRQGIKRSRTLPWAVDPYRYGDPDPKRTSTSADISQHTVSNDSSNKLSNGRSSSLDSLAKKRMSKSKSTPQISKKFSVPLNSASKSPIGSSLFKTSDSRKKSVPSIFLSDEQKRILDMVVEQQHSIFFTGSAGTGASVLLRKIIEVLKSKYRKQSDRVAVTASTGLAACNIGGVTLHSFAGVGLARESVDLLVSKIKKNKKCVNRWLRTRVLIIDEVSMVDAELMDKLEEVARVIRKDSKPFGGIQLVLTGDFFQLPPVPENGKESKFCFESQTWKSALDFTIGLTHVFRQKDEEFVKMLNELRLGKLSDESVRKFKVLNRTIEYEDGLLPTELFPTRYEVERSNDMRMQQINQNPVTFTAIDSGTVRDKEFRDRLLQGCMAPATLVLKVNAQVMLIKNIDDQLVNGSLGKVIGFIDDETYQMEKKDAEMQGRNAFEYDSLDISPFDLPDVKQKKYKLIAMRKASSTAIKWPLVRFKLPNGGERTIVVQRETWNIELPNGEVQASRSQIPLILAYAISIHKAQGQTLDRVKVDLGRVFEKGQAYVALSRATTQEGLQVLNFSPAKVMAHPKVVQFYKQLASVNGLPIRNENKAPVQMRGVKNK
Assay: EMSA

**Q.** Does AAAAAAAAAA (ssDNA) [Poly(A)10] bind?
**A.** no binding
